Reference: US20230303636A1 (UNIVERSITY COURT OF THE UNIVERSITY OF GLASGOW, published 2023)

B1: pyocin AP41 immunity protein with C-terminal His6-tag (other)
chain: MDIKNNLSDYTESEFLEIIEEFFKNKSGLKGSELEKRMDKLVKHFEEVTSHPRKSGVIFHPKPGFETPEGIVKEVKEWRAANGLPGFKAG
notes: It is not explicitly tied to the C763 construct; also called ImAP41; not shown: C-terminal His6-tag from pET21a (XhoI site in place of the stop codon)
B2: pyocin S2 immunity protein (other)
chain: MKSKISEYTEKEFLEFVKDIYTNNKKKFPTEESHIQAVLEFKKLTEHPSGSDLLYYPNENREDSPAGVVKEVKEWRASKGLPGFKAG
notes: also called ImS2

Key:
[1] = biological target: T1, pyocin AP41 (Pseudomonas aeruginosa (gene amplified …)); assay: co-expression in E. coli; complex purified on a His Trap column and by gel filtration
T1 chain: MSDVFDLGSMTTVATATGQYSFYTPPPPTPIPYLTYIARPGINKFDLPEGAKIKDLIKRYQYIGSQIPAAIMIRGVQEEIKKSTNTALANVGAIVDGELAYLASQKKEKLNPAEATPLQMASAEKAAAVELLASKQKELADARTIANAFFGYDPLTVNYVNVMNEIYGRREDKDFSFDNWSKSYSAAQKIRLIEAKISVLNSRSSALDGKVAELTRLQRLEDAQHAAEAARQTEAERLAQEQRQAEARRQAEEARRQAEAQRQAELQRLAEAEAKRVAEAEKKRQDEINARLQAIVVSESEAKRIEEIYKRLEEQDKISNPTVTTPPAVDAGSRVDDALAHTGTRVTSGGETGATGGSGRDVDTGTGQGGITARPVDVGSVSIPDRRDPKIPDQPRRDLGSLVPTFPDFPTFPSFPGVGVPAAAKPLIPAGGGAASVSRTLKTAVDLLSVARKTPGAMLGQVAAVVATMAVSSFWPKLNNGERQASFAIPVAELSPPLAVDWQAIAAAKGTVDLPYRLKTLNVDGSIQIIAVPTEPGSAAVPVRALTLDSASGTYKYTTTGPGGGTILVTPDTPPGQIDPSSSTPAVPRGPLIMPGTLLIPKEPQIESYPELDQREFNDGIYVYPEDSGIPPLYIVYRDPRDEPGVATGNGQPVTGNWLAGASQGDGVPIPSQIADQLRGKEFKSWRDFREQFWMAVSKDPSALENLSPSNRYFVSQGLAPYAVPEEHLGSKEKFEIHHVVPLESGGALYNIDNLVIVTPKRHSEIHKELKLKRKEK

[2] = biological target: pyocin S2 (Pseudomonas aeruginosa, UniProt Q06584 1-689); assay: purification of the complex, method only by reference
Chain of pyocin S2 (Q06584 whole entry): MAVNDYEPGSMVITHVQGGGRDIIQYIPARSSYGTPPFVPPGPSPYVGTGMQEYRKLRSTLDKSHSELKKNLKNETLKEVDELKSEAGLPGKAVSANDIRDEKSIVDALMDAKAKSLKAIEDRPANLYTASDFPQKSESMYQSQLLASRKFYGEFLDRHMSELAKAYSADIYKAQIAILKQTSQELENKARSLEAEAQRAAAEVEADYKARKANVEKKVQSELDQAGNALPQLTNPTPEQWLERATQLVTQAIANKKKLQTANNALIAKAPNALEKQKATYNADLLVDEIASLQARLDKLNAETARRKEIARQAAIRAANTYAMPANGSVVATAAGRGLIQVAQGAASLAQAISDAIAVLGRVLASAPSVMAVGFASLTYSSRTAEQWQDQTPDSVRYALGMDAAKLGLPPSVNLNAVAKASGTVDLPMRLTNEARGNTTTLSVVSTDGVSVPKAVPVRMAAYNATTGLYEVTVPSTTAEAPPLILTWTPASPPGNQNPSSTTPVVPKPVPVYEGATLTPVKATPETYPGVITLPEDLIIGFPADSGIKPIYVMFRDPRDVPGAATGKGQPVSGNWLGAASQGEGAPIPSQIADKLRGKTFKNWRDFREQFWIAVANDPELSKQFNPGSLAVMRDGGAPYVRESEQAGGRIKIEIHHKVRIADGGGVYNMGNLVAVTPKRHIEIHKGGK

| Binder | binding result [1] | binding result [2] |
| --- | --- | --- |
| B1 | binds | – |
| B2 | – | binds |
